Reference: patent US8221992

B1: recombinant PKCε (rePKCε) (Calbiochem) (protein)
chain: MVVFNGLLKIKICEAVSLKPTAWSLRHAVGPRPQTFLLDPYIALNVDDSRIGQTATKQKTNSPAWHDEFVTDVCNGRKIELAVFHDAPIGYDDFVANCTIQFEELLQNGSRHFEDWIDLEPEGRVYVIIDLSGSSGEAPKDNEERVFRERMRPRKRQGAVRRRVHQVNGHKFMATYLRQPTYCSHCRDFIWGVIGKQGYQCQVCTCVVHKRCHELIITKCAGLKKQETPDQVGSQRFSVNMPHKFGIHNYKVPTFCDHCGSLLWGLLRQGLQCKVCKMNVHRRCETNVAPNCGVDARGIAKVLADLGVTPDKITNSGQRRKKLIAGAESPQPASGSSPSEEDRSKSAPTSPCDQEIKELENNIRKALSFDNRGEEHRAASSPDGQLMSPGENGEVRQGQAKRLGLDEFNFIKVLGKGSFGKVMLAELKGKDEVYAVKVLKKDVILQDDDVDCTMTEKRILALARKHPYLTQLYCCFQTKDRLFFVMEYVNGGDLMFQIQRSRKFDEPRSRFYAAEVTSALMFLHQHGVIYRDLKLDNILLDAEGHCKLADFGMCKEGILNGVTTTTFCGTPDYIAPEILQELEYGPSVDWWALGVLMYEMMAGQPPFEADNEDDLFESILHDDVLYPVWLSKEAVSILKAFMTKNPHKRLGCVASQNGEDAIKQHPFFKEIDWVLLEQKKIKPPFKPRIKTKRDVNNFDQDFTREEPVLTLVDEAIVKQINQEEFKGFSYFGEDLMP
B2: PKCε in THP1 cell lysates (protein)
chain: B1 chain
B3: recombinant PKCζ (rePKCζ) (protein)
chain: MPSRTGPKMEGSGGRVRLKAHYGGDIFITSVDAATTFEELCEEVRDMCRLHQQHPLTLKWVDSEGDPCTVSSQMELEEAFRLARQCRDEGLIIHVFPSTPEQPGLPCPGEDKSIYRRGARRWRKLYRANGHLFQAKRFNRRAYCGQCSERIWGLARQGYRCINCKLLVHKRCHGLVPLTCRKHMDSVMPSQEPPVDDKNEDADLPSEETDGIAYISSSRKHDSIKDDSEDLKPVIDGMDGIKISQGLGLQDFDLIRVIGRGSYAKVLLVRLKKNDQIYAMKVVKKELVHDDEDIDWVQTEKHVFEQASSNPFLVGLHSCFQTTSRLFLVIEYVNGGDLMFHMQRQRKLPEEHARFYAAEICIALNFLHERGIIYRDLKLDNVLLDADGHIKLTDYGMCKEGLGPGDTTSTFCGTPNYIAPEILRGEEYGFSVDWWALGVLMFEMMAGRSPFDIITDNPDMNTEDYLFQVILEKPIRIPRFLSVKASHVLKGFLNKDPKERLGCRPQTGFSDIKSHAFFRSIDWDLLEKKQALPPFQPQITDDYGLDNFDTQFTSEPVQLTPDDEDAIKRIDQSEFEGFEYINPLLLSTEESV
B4: PKCζ in THP1 cell lysates (protein)
chain: B3 chain

What was measured:
[1] = molecular target: GST-TRAM fusion protein (wild type), Q86XR7
[2] = molecular target: Mal (MyD88 adaptor-like), P58753
[3] = molecular target: GST-TRAM Ser16 mutant (serine 16 mutated to alanine), Q86XR7
Chain of GST-TRAM Ser16 mutant (serine 16 mutated to alanine), Q86XR7 (Q86XR7 whole entry, looked up, change not shown): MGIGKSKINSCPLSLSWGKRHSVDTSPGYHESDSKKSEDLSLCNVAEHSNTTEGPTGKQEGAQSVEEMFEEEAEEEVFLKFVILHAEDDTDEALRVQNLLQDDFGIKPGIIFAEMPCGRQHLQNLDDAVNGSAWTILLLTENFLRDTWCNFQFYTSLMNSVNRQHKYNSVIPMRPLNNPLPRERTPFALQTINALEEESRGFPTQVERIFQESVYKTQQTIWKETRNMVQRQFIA

Chain of GST-TRAM fusion protein (wild type), Q86XR7 (Q86XR7 whole entry, the tested form may be a part): as the sequence (Q86XR7 whole entry, looked up, change not shown) above
Chain of Mal (MyD88 adaptor-like), P58753 (P58753 whole entry): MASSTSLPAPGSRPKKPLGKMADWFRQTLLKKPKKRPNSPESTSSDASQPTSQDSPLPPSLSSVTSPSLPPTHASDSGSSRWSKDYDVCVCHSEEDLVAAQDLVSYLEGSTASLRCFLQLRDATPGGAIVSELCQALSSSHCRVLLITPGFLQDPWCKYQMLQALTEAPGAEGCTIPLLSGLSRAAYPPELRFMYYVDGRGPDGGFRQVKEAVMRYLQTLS

Protein | phosphorylation in an in-vitro kinase assay ([γ32P] ATP, autoradiography) [1] | phosphorylation in an in-vitro kinase assay ([γ32P] ATP, autoradiography) [2] | phosphorylation of GST-TRAM after pulldown from THP1 lysates (kinase assay) [3] | phosphorylation of GST-TRAM after pulldown from immunodepleted THP1 lysates (kinase assay) [1]
B1 | recombinant PKCε (rePKCε) (Calbiochem) phosphorylated GST-TRAM | rePKCε phosphorylated WT-TRAM but not Mal | – | –
B2 | – | – | we mutated serine 16 to an alanine and found that the LPS dependent phosphorylation of TRAM was severally impaired | the removal of PKCε from the lysates abolishes the phosphorylation of TRAM
B3 | Recombinant PKCζ did not phosphorylate TRAM again suggesting specificity | – | – | –
B4 | – | – | – | The removal of PKCζ had no effect on the phosphorylation of TRAM
